Experimental data reported in US20120058906A1 (published 2012).

Experiments:
[1] = target: T1, rHuman IGF-1 sR (insulin-like growth factor-1 soluble receptor), CF (R&D Systems Cat#391-GR) (human, UniProt P08069 31-932); assay: MSD ECL multi-spot, Fab 0.21 uM, blank 529; row label 3 may be swapped with 4;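 further: blank spot per well as comparator with Hit at signal to blank ratio of 4 or more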
T1 construct: Bought soluble receptor; also called IGF-R1

[2] = target: T2, rHuman CD44/Fc Chimera, CF (R&D Systems Cat#3660-CD) (human, UniProt P16070 21-220); assay: as above
T2 construct: Bought Fc chimera; Fc part of the bought chimera not given

[3] = target: T3, rHuman ErbB2/Fc Chimera, CF (R&D Systems Cat#1129-ER) (human, UniProt P04626 23-652); assay: as above
T3 construct: Bought Fc chimera; also called HER2/neu; Fc part of the bought chimera not given

[4] = target: T4, rHuman HGF R/c-MET/Fc Chimera, CF (R&D Systems Cat#358-MT/CF) (human, UniProt P08581 25-932); assay: as above
T4 construct: Bought Fc chimera; also called HGF R/Fc; Fc part of the bought chimera not given

[5] = target: T5, rHuman Erythropoietin R/Fc Chimera, CF (R&D Systems Cat#963-ER) (human, UniProt P19235 25-250); assay: as above
T5 construct: Bought Fc chimera; also called EPO R/Fc; EPOR; Fc part of the bought chimera not given
T5 sequence: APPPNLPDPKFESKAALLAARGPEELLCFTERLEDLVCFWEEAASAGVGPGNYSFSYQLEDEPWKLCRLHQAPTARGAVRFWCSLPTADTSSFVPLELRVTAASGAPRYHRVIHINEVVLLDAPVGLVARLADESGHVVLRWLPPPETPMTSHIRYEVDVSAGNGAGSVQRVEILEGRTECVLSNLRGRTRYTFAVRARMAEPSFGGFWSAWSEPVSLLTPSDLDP

[6] = target: T6, rHuman EGF R/Fc Chimera, CF (R&D Systems Cat#344-ER) (human, UniProt P00533 25-645); assay: as above
T6 construct: Bought Fc chimera; Fc part of the bought chimera not given

[7] = target: T7, rHuman Notch-1/Fc Chimera, CF (R&D Systems Cat#3647-TK) (human, UniProt P46531 19-526); assay: as above
T7 construct: Bought Fc chimera; Fc part of the bought chimera not given

[8] = target: T8, Recombinant Human DLL4 (R&D Systems Cat#1506-D4/CF) (human, UniProt Q9NR61 27-524); assay: as above
T8 construct: Bought recombinant protein; also called rHuman DLL4; delta-like protein 4

[9] = target: T9, rHuman P-Cadherin/Fc Chimera, CF (R&D Systems Cat#861-PC) (human, UniProt P22223 108-654); assay: as above
T9 construct: Bought Fc chimera; Fc part of the bought chimera not given

[10] = target: T10, rHuman P-Cadherin/Fc Chimera, CF (R&D Systems Cat#861-PC) (human, UniProt P22223 108-654); assay: MSD ECL multi-spot plate; Fab 392.5 nM; blank spot 338
T10 construct: Fc part of the bought chimera not given

[11] = target: T11, rHuman Erythropoietin R/Fc Chimera, CF (R&D Systems Cat#963-ER) (human, UniProt P19235 25-250); assay: as above
T11 construct: also called EPO R/Fc; Epo R; Fc part of the bought chimera not given
T11 sequence: T5 sequence

[12] = target: T12, rHuman ErbB2/Fc Chimera, CF (R&D Systems Cat#1129-ER) (human, UniProt P04626 23-652); assay: as above
T12 construct: also called HER2/neu; human epidermal growth factor 2 receptor; Fc part of the bought chimera not given

[13] = target: T13, rHuman IGF-1 sR, (IGF-1 sR), CF (R&D Systems Cat#391-GR) (human, UniProt P08069 31-932); assay: as above
T13 construct: also called insulin-like growth factor-1 soluble receptor; IGF-R1

[14] = target: T14, rHuman CD44/Fc Chimera, CF (R&D Systems Cat#3660-CD) (human, UniProt P16070 21-220); assay: as above
T14 construct: Fc part of the bought chimera not given

[15] = target: T15, rHuman HGF R/c-MET/Fc Chimera, CF (R&D Systems Cat#358-MT/CF) (human, UniProt P08581 25-932); assay: as above
T15 construct: also called HGF R/Fc; hepatocyte growth factor receptor; Fc part of the bought chimera not given

[16] = target: T10, rHuman P-Cadherin/Fc Chimera, CF (R&D …); assay: MSD ECL multi-spot plate; Fab 24.5 nM; blank spot 149
[17] = target: T11, rHuman Erythropoietin R/Fc Chimera, CF …; assay: as above
[18] = target: T12, rHuman ErbB2/Fc Chimera, CF (R&D …); assay: as above
[19] = target: T13, rHuman IGF-1 sR, (IGF-1 sR), CF (R&D …); assay: as above
[20] = target: T14, rHuman CD44/Fc Chimera, CF (R&D Systems …); assay: as above
[21] = target: T15, rHuman HGF R/c-MET/Fc Chimera, CF (R&D …); assay: as above
[22] = target: T10, rHuman P-Cadherin/Fc Chimera, CF (R&D …); assay: MSD ECL multi-spot plate; Fab 98.1 nM; blank spot 210
[23] = target: T11, rHuman Erythropoietin R/Fc Chimera, CF …; assay: as above
[24] = target: T12, rHuman ErbB2/Fc Chimera, CF (R&D …); assay: as above
[25] = target: T13, rHuman IGF-1 sR, (IGF-1 sR), CF (R&D …); assay: as above
[26] = target: T14, rHuman CD44/Fc Chimera, CF (R&D Systems …); assay: as above
[27] = target: T15, rHuman HGF R/c-MET/Fc Chimera, CF (R&D …); assay: as above
[28] = target: T10, rHuman P-Cadherin/Fc Chimera, CF (R&D …); assay: MSD ECL multi-spot plate; Fab 1570 nM; blank spot 866
[29] = target: T11, rHuman Erythropoietin R/Fc Chimera, CF …; assay: as above
[30] = target: T12, rHuman ErbB2/Fc Chimera, CF (R&D …); assay: as above
[31] = target: T13, rHuman IGF-1 sR, (IGF-1 sR), CF (R&D …); assay: as above
[32] = target: T14, rHuman CD44/Fc Chimera, CF (R&D Systems …); assay: as above
[33] = target: T15, rHuman HGF R/c-MET/Fc Chimera, CF (R&D …); assay: as above

B1: Fab VH6-1_IGHD3-3*01_IGHJ4*01 & V4-3_IGLJ4*01 (Fab, V domains shown)
VH: QVQLQQSGPGLVKPSQTLSLTCAISGDSVSSNSAAWNWIRQSPSRGLEWLGRTYYRSKWYNDYAVSVKSRITINPDTSKNQFSLQLNSVTPEDTAVYYCAREYYDFWSGYYTDYFDYWGQGTLVTVSS
VL: QPVLTQPTSLSASPGASARLTCTLRSGINLGSYRIFWYQQKPESPPRYLLSYYSDSSKHQGSGVPSRFSGSKDASSNAGILVISGLQSEDEADYYCMIWHSSASFVFGGGTQLIIL
notes: Expressed in E. coli as Fab: heavy chain with CH1 plus Flag and His tags from Plasmid A, lambda light chain constant region from Plasmid E; also called Fab No. 3
[1]
  ECL signal: 763
[2]
  ECL signal: 837
[3]
  ECL signal: 9230
[4]
  ECL signal: 744
[5]
  ECL signal: 1120
[6]
  ECL signal: 815
[7]
  ECL signal: 949
[8]
  ECL signal: 1070
[9]
  ECL signal: 890

B2: Fab VH1-46_IGHD3-10*01_IGHJ4*01 & O1_IGKJ1*01 (Fab, V domains shown)
VH: QVQLVQSGAEVKKPGASVKVSCKASGYTFTSYYMHWVRQAPGQGLEWMGIINPSGGSTSYAQKFQGRVTMTRDTSTSTVYMELSSLRSEDTAVYYCAREYYYGSGSYYNDYFDYWGQGTLVTVSS
VL: DIVMTQTPLSLPVTPGEPASISCRSSQSLLDSDDGNTYLDWYLQKPGQSPQLLIYTLSYRASGVPDRFSGSGSGTDFTLKISRVEAEDVGVYYCMQRIEFPSWTFGQGTKVEIK
notes: It was expressed in E. coli as a Fab; The heavy chain carries CH1 from Plasmid A with Flag and His tags; The light chain carries the kappa constant region from Plasmid C
[10]
  ECL signal: 459 ECL signal
[11]
  ECL signal: 5860 ECL signal
[12]
  ECL signal: 539 ECL signal
[13]
  ECL signal: 466 ECL signal
[14]
  ECL signal: 498 ECL signal
[15]
  ECL signal: 581 ECL signal
[16]
  ECL signal: 257 ECL signal
[17]
  ECL signal: 4530 ECL signal
[18]
  ECL signal: 241 ECL signal
[19]
  ECL signal: 239 ECL signal
[20]
  ECL signal: 267 ECL signal
[21]
  ECL signal: 211 ECL signal
[22]
  ECL signal: 347 ECL signal
[23]
  ECL signal: 5630 ECL signal
[24]
  ECL signal: 247 ECL signal
[25]
  ECL signal: 309 ECL signal
[26]
  ECL signal: 265 ECL signal
[27]
  ECL signal: 335 ECL signal
[28]
  ECL signal: 1790 ECL signal
[29]
  ECL signal: 6120 ECL signal
[30]
  ECL signal: 1260 ECL signal
[31]
  ECL signal: 1430 ECL signal
[32]
  ECL signal: 1380 ECL signal
[33]
  ECL signal: 1640 ECL signal
